Laboratory results taken from patent US20030059812.

Biological target: 3H-histones isolated from murine erythroleukemia cells

B1: HDAC9a-FLAG (C-terminal FLAG-tagged HDAC9a, expressed from pFLAG-CMV-5b-HDAC9a, plasmid VR2) (protein)
chain: MHSMISSVDVKSEVPVGLEPISPLDLRTDLRMMMPVVDPVVREKQLQQELLLIQQQQQIQKQLLIAEFQKQHENLTRQHQAQLQEHIKELLAIKQQQELLEKEQKLEQQRQEQEVERHRREQQLPPLRGKDRGRERAVASTEVKQKLQEFLLSKSATKDTPTNGKNHSVSRHPKLWYTAAHHTSLDQSSPPLSGTSPSYKYTLPGAQDAKDDFPLRKTASEPNLKVRSRLKQKVAERRSSPLLRRKDGNVVTSFKKRMFEVTESSVSSSSPGSGPSSPNNGPTGSVTENETSVLPPTPHAEQMVSQQRILIHEDSMNLLSLYTSPSLPNITLGLPAVPSQLNASNSLKEKQKCETQTLRQGVPLPGQYGGSIPASSSHPHVTLEGKPPNSSHQALLQHLLLKEQMRQQKLLVAGGVPLHPQSPLATKERISPGIRGTHKLPRHRPLNRTQSAPLPQSTLAQLVIQQQHQQFLEKQKQYQQQIHMNKLLSKSIEQLKQPGSHLEEAEEELQGDQAMQEDRAPSSGNSTRSDSSACVDDTLGQVGAVKVKEEPVDSDEDAQIQEMESGEQAAFMQQPFLEPTHTRALSVRQAPLAAVGMDGLEKHRLVSRTHSSPAASVLPHPAMDRPLQPGSATGIAYDPLMLKHQCVCGNSTTHPEHAGRIQSIWSRLQETGLLNKCERIQGRKASLEEIQLVHSEHHSLLYGTNPLDGQKLDPRILLGDDSQKFFSSLPCGGLGVDSDTIWNELHSSGAARMAVGCVIELASKVASGELKNGFAVVRPPGHHAEESTAMGFCFFNSVAITAKYLRDQLNISKILIVDLDVHHGNGTQQAFYADPSILYISLHRYDEGNFFPGSGAPNEVRFISLEPHFYLYLSGNCIA
  HDAC enzymatic activity (3H-acetic acid released from 3H-histones): HDAC9a-FLAG deacetylated 3H-acetyl-histones
